We go through 4 molecules from publication PMC3258177 (Molecular Biology of the Cell, 2012).

B1: Sso1, cytoplasmic region (domain or fragment)
chain: MSYNNPYQLETPFEESYELDEGSSAIGAEGHDFVGFMNKISQINRDLDKYDHTINQVDSLHKRLLTEVNEEQASHLRHSLDNFVAQATDLQFKLKNEIKSAQRDGIHDTNKQAQAENSRQRFLKLIQDYRIVDSNYKEENKEQAKRQYMIIQPEATEDEVEAAISDVGGQQIFSQALLNANRRGEAKTALAEVQARHQELLKLEKSMAELTQLFNDMEELVIEQQENVDVIDKNVEDAQLDVEQGVGHTDKAVKSARKARKNKIR
B2: Sec1-V5-His6 (natural protein)
chain: MSDLIELQRNYLIGVLNQIETKNNLKFLIIDKTVETILSYLFLTPQELLNNVTSVDLIDSPTRKGQSSIEAIYILEPTKYNINCIDADFMVRPPKYRRCHIRFLPGLTNPIFQFFQSKRYIAQNLESFKPIELGFFVKESQFFETLQMEHSLQVFFNNNCKALIPTNVRKIVGSLVSLCVITGEYPIVRYSVSNPVEEEDARNGNAVVNANSLTRSIANAFQIAIDTYARNNPDFPPQNTERPRSILIITDRTLDPFAPILHDFSYQAMAYDLVANVDTQKDIYHYSAENEAGEQEEKVSKLVDLYDPDWIDLKHQHIMDANEYIQGRIKELIAKNPLLVDRSNVKNTTDLLSVVAHLKDFDEERRRLILHKTLVDECLGENAERKLADISAIEQNLSGFGMDFSGEKIKHIIDDLLPALAMKEPTILDKLRYIIAYALFRGGIIELDFIKLLNFIGVTHEHENFQQYLKIFRNYDLIDFKLIKDKPKDKPFQKEWFHDTLVNDPNIYHTSRFVPAVGNILSKVIANPLLLSEQYFPYLKDKPIELLNEEEFQAGLANTSANSSSSLRNPRHKAAWTTKSSNIKKNIPRQRFFYYVIGGISIPEIKAAYDQSNLKNRDIFIGSDEILTPTKFLDEVERLQNPREFFKFKEDQRQQVNPPDFLLREMKPVAQPVSHVHLKSQDNSPKSGTSSPKAAGSLKSEPPEKEKKRSKFSRFLKRKSHHDK
B3: MBP-Sec9CT (domain or fragment)
chain: ARQQQEEDEAVDEIKQEIKFTKQSSVASTRNTLKMAQDAERAGMNTLGMLGHQSEQLNNVEGNLDLMKVQNKVADEKVAELKKLNRSILAVHVSNPFNSKRRRREREEQLKNRKIEEKLMREQTSQQLSQSTQRIEGAMNANNNISEVRERYQRKNVLEKAKRYQFENDEEDDEMELEIDRNLDQIQQVSNRLKKMALTTGKELDSQQKRLNNIEESTDDLDINLHMNTNRLAGIR
B4: Sec9CT (416–651) (domain or fragment)
chain: B3 chain

The target of the assay “Sec1-V5-His6” is B2. Briefly: pull-down.
Assay [1] concerns the target T1, Recombinant Sec6 (1–805) (yeast, UniProt P32844 1-805).
T1 sequence: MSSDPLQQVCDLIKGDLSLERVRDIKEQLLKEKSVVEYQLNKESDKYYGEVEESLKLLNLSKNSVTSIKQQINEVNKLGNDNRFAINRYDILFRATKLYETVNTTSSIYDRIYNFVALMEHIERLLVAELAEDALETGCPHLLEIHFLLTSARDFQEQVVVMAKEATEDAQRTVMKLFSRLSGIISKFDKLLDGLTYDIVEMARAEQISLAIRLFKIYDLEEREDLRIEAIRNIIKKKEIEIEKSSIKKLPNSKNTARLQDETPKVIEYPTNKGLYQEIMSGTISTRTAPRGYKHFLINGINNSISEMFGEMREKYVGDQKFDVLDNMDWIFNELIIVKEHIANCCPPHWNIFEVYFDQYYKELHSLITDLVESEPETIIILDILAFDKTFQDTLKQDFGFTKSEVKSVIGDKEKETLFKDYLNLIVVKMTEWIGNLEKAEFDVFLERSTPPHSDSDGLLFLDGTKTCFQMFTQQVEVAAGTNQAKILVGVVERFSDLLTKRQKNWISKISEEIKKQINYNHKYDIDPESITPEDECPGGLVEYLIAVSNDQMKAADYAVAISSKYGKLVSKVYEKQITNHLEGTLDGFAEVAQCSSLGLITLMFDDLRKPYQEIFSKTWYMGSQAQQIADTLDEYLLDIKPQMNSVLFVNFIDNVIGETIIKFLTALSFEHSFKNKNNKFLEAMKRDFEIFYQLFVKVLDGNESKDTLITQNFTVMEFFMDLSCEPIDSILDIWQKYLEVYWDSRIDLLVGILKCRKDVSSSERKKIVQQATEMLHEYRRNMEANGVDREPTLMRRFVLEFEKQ
Briefly: pull-down.

Assay [2] concerns the target T1, Recombinant Sec6 (1–805). Briefly: […].
The target in assay [3] is T1, Recombinant Sec6 (1–805). Put plainly: SEC.

The term Kd denotes the constant that tells how readily two partners part at equilibrium.

Regarding B1, the equilibrium dissociation constant (Kd) in the assay with Sec1-V5-His6 was above 10000 nM.

In the case of B2, the Kd with Recombinant Sec6 (1–805) [1] is around 1700 nM.

As to B3, the binding result in the assay with Recombinant Sec6 (1–805) [2] is listed as “binds”.

For B4, in the assay with Recombinant Sec6 (1–805) [3], the binding result was “binds”.
